Test results reported in patent publication US20200140501A1 (published 2020).

Target: T1, hNGAL lipocalin mutein SEQ ID NO: 1
T1 chain: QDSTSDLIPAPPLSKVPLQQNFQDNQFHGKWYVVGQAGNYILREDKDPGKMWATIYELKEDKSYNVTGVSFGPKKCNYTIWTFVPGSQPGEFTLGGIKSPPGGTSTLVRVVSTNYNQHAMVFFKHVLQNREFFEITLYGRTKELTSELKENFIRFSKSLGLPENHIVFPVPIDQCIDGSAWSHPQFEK
Assay: solution competition ELISA: ligand titrated against 0.1 nM SEQ ID NO: 1, free mutein captured on immobilised hAng-2
Experimental: In the following detailed experimental protocol, incubation and washing steps were performed as described above in the competition ELISA protocol (see Example 5).
The residual supernatants were discarded and 20 μl HRP-labeled anti-lipocalin-mutein antibody was added at a predetermined optimal concentration in PBS-T/BSA and incubated for 1 h at RT. […] After washing, 20 μl fluorogenic HRP substrate (Quantablue, Pierce) was added to each well, and the reaction was allowed to proceed for 60 minutes. The fluorescence intensity of every well on the plate was read using a Genios Plus Microplate reader (Tecan).

B1: human angiopoietin-1 (Ang-1) (ligand, UniProt Q15389 20-498, looked up)
chain: SNQRRSPENSGRRYNRIQHGQCAYTFILPEHDGNCRESTTDQYNTNALQRDAPHVEPDFSSQKLQHLEHVMENYTQWLQKLENYIVENMKSEMAQIQQNAVQNHTATMLEIGTSLLSQTAEQTRKLTDVETQVLNQTSRLEIQLLENSLSTYKLEKQLLQQTNEILKIHEKNSLLEHKILEMEGKHKEELDTLKEEKENLQGLVTRQTYIIQELEKQLNRATTNNSVLQKQQLELMDTVHNLVNLCTKEGVLLKGGKREEEKPFRDCADVYQAGFNKSGIYTIYINNMPEPKKVFCNMDVNGGGWTVIQHREDGSLDFQRGWKEYKMGFGNPSGEYWLGNEFIFAITSQRQYMLRIELMDWEGNRAYSQYDRFHIGNEKQNYRLYLKGHTGTAGKQSSLILHGADFSTKDADNDNCMCKCALMLTGGWWFDACGPSNLNGMFYTAGQNHGKLNGIKWHYFKGPSYSLRSTTMMIRPLDF
notes: also called hAng-1; human Ang-1
  IC50: > 100 nM
